Source: publication PMC9482650, “Quantitative fragmentomics allow affinity mapping of interactomes” (Nature Communications, 2022)

Legend:
TJP1_2, Q07157 = experiment: holdup assay; set-up: key: below the threshold = too weak to quantify, mostly under pKd 3.1 to 4
DLG1_3, Q12959 = experiment: holdup assay; set-up: key: below the threshold = too weak to quantify, mostly under pKd 3.1 to 4
[1] = plain residues with an end cap or a label only (N-terminal biotin on a linker: ado-ado)
[2] = modified: phospho on T at position -2 from the C-terminal residue
[3] = modified: phospho on T at position -1 from the C-terminal residue

Sequence of TJP1_2, Q07157 (Q07157 181-274): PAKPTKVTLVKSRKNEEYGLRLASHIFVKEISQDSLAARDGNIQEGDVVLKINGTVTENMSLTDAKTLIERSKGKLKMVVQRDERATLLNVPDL
Sequence of DLG1_3, Q12959 (Q12959 457-571): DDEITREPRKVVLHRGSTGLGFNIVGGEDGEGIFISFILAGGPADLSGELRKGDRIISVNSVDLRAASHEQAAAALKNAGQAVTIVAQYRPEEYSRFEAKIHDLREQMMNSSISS

SKSLERATQL [COMMD3, Q9UBI1]
pKd (TJP1_2, Q07157; [1]): 3.51
pKd (DLG1_3, Q12959; [1]): 3.97

RRVRKLPSTTL [RPS6KA1_-2P, Q15418]
pKd (TJP1_2, Q07157; [2]): below the threshold
pKd (DLG1_3, Q12959; [2]): below the threshold

PELESKESVL [SLC1A4, P43007]
pKd (TJP1_2, Q07157; [1]): below the threshold
pKd (DLG1_3, Q12959; [1]): below the threshold

QFTLRHWLKV [SLC6A3, Q01959]
pKd (TJP1_2, Q07157; [1]): 4.19
pKd (DLG1_3, Q12959; [1]): below the threshold

LTAQEQPVYI [APBA1, Q02410]
pKd (TJP1_2, Q07157; [1]): 3.55
pKd (DLG1_3, Q12959; [1]): below the threshold

LEPAVRSSEL [SH2D3C, Q8N5H7]
pKd (TJP1_2, Q07157; [1]): below the threshold
pKd (DLG1_3, Q12959; [1]): below the threshold

PDGEMMEVLI [AMOTL1, Q8IY63]
pKd (TJP1_2, Q07157; [1]): below the threshold
pKd (DLG1_3, Q12959; [1]): below the threshold

LRYARPADAL [PPP1R3G, B7ZBB8]
pKd (TJP1_2, Q07157; [1]): below the threshold
pKd (DLG1_3, Q12959; [1]): below the threshold

VISERNSTTV [C3AR1, Q16581]
pKd (TJP1_2, Q07157; [1]): below the threshold
pKd (DLG1_3, Q12959; [1]): below the threshold

EYRKDNKVAA [LSM14A, Q8ND56;Q8ND56-2]
pKd (TJP1_2, Q07157; [1]): below the threshold

WRSKRTDTLL [RAMP3, O60896]
pKd (TJP1_2, Q07157; [1]): 3.55
pKd (DLG1_3, Q12959; [1]): below the threshold

RELVMRVTTV [MARCHF4, Q9P2E8]
pKd (TJP1_2, Q07157; [1]): below the threshold
pKd (DLG1_3, Q12959; [1]): 5.12

DQPLEKSTKL [AKAP10, O43572]
pKd (TJP1_2, Q07157; [1]): below the threshold
pKd (DLG1_3, Q12959; [1]): below the threshold

PAPGQHTTQI [STK16, O75716]
pKd (TJP1_2, Q07157; [1]): below the threshold
pKd (DLG1_3, Q12959; [1]): 3.71

RTQSSDSAYV [GJD2, Q9UKL4]
pKd (TJP1_2, Q07157; [1]): below the threshold
pKd (DLG1_3, Q12959; [1]): below the threshold

DSATVRTYSC [PPFIA1, Q13136]
pKd (TJP1_2, Q07157; [1]): 3.48
pKd (DLG1_3, Q12959; [1]): below the threshold

SMLNRRTTPV [CACNG4, Q9UBN1]
pKd (TJP1_2, Q07157; [1]): below the threshold
pKd (DLG1_3, Q12959; [1]): 4.39

GCQGETEDVL [PTH2R, P49190]
pKd (TJP1_2, Q07157; [1]): below the threshold
pKd (DLG1_3, Q12959; [1]): below the threshold

RPGFASESKV [ADRB1, P08588]
pKd (TJP1_2, Q07157; [1]): below the threshold
pKd (DLG1_3, Q12959; [1]): below the threshold

FEEEAEEEVA [TUBB4B, P68371]
pKd (TJP1_2, Q07157; [1]): below the threshold
pKd (DLG1_3, Q12959; [1]): below the threshold

TMQMSLKDLL [GLA, P06280]
pKd (TJP1_2, Q07157; [1]): below the threshold
pKd (DLG1_3, Q12959; [1]): below the threshold

PMESGICTIV [TTC24, A2A3L6]
pKd (TJP1_2, Q07157; [1]): 3.56
pKd (DLG1_3, Q12959; [1]): 3.53

PASAKGPLGV [CLDN19, Q8N6F1]
pKd (TJP1_2, Q07157; [1]): below the threshold
pKd (DLG1_3, Q12959; [1]): below the threshold

EEDTAEKDEL [HSPA5, P11021]
pKd (TJP1_2, Q07157; [1]): below the threshold
pKd (DLG1_3, Q12959; [1]): 3.77

GQSVDLVFPV [AKIP1, Q9NQ31]
pKd (TJP1_2, Q07157; [1]): below the threshold
pKd (DLG1_3, Q12959; [1]): below the threshold

RRVRKLPSTTL [RPS6KA1_-1P, Q15418]
pKd (TJP1_2, Q07157; [3]): below the threshold
pKd (DLG1_3, Q12959; [3]): 3.7

LSEFKAMDSF [CTNNA2, P26232]
pKd (TJP1_2, Q07157; [1]): below the threshold
pKd (DLG1_3, Q12959; [1]): below the threshold

PLDSQQHTEV [FAT1, Q14517]
pKd (TJP1_2, Q07157; [1]): 3.62
pKd (DLG1_3, Q12959; [1]): below the threshold

GDHLDRRVVL [VAC14, Q08AM6]
pKd (TJP1_2, Q07157; [1]): below the threshold
pKd (DLG1_3, Q12959; [1]): below the threshold

LETREPTNTL [GRIP1, Q9Y3R0]
pKd (TJP1_2, Q07157; [1]): below the threshold
pKd (DLG1_3, Q12959; [1]): below the threshold

RQSILFSTEV [BCR, P11274]
pKd (TJP1_2, Q07157; [1]): 3.62
pKd (DLG1_3, Q12959; [1]): 4.06

ANGLMQTSKL [SSTR5, P35346]
pKd (TJP1_2, Q07157; [1]): below the threshold
pKd (DLG1_3, Q12959; [1]): below the threshold

SRPTKGPTLL [PLEKHH2, Q8IVE3]
pKd (TJP1_2, Q07157; [1]): below the threshold
pKd (DLG1_3, Q12959; [1]): below the threshold

SRPRPDDLEI [GJA1, P17302]
pKd (TJP1_2, Q07157; [1]): 4.53
pKd (DLG1_3, Q12959; [1]): below the threshold

NASRTRITFV [MCM7, P33993]
pKd (TJP1_2, Q07157; [1]): 3.62
pKd (DLG1_3, Q12959; [1]): 4.12

NVYGTESVKI [GRIA3, P42263]
pKd (TJP1_2, Q07157; [1]): 3.59
pKd (DLG1_3, Q12959; [1]): below the threshold

ETSLVKGIDI [DENND5A, Q6IQ26]
pKd (TJP1_2, Q07157; [1]): 4.03
pKd (DLG1_3, Q12959; [1]): 3.76

QELLEYETTV [XKR7, Q5GH72]
pKd (TJP1_2, Q07157; [1]): below the threshold
pKd (DLG1_3, Q12959; [1]): 4.09

GQETPLNTFC [MAP7D2, Q96T17]
pKd (TJP1_2, Q07157; [1]): below the threshold
pKd (DLG1_3, Q12959; [1]): below the threshold

QSPPNIYYKV [EFNB3, Q15768]
pKd (TJP1_2, Q07157; [1]): below the threshold
pKd (DLG1_3, Q12959; [1]): 3.72

REVVMRVTTV [MARCHF9, Q86YJ5]
pKd (TJP1_2, Q07157; [1]): below the threshold
pKd (DLG1_3, Q12959; [1]): 5.01

RALRASESGI [ADGRE5, P48960]
pKd (TJP1_2, Q07157; [1]): below the threshold
pKd (DLG1_3, Q12959; [1]): below the threshold
